Assay: infectious virion yield
Conditions: glycan lost; control: WT tetherin

B1: tetherin (BST-2): N65,92A (protein)
parent chain: MASTSYDYCRVPMEDGDKRCKLLLGIGILVLLIIVILGVPLIIFTIKANSEACRDGLRAVMECRNVTHLLQQELTEAQKGFQDVEAQAATCNHTVMALMASLDAEKAQGQKKVEELEGEITTLNHKLQDASAEVERLRRENQVLSVRIADKKYYPSSQDSSSAAAPQLLIVLLGLSALLQ
other: inhibition of virion release: abolishes

From PMC2844890
